{"source": "patent US20250188194A1", "about": "“Method of treatment” (Nucleus Therapeutics Pty Ltd, priority 2021, published 2025)", "key": {"[1]": {"test_system": "PLB-985 cells", "assay": "Cellular penetration assay", "type": "cell-based, human", "settings": "PLB-985 cells in culture, 5 μM DX1 for one hour", "experimental": "FIG. 1. DX1 penetrates PLB-985 cells. Cells treated with control or 5 μM DX1 for one hour were washed, fixed, and immunostained to detect DX1. […] Dark stain represents alkaline phosphatase-based detection of signal. Bar: 25 μm.\nWork with isolated mouse or human neutrophils is challenging due to their short functional lifespans, and granulocyte-differentiated HL-60 and their subclone PLB-985 human acute myeloid leukemia cells provide a reliable alternative to isolated neutrophils for NETosis studies. The nuclear-penetrating anti-DNA autoantibody 3E10 and its derivative DX1 require expression of the nucleoside transporter ENT2 in order to penetrate target cells. ENT2 expression in HL-60 cells has previously been reported, and DX1 was confirmed to penetrate into ˜100% of PLB-985 cells in culture (FIG. 1).\nPLB-985 cells cultured on Shi-fix coverslips (Shikhar Biotech, Khumaltar, Lalitpur, Nepal) were treated for one hour with control media or media containing 5 μM DX1 and then washed and fixed in 100% chilled ethanol. Presence of DX1 in the cells was evaluated by incubation with Pierce™ Recombinant Protein L (1:1000) (#21189, Thermo Fisher Scientific), protein L polyclonal antibody (1:1000) (#PA1-72066, Thermo Fisher Scientific), and goat anti-chicken IgY (H+L) alkaline phosphatase secondary antibody (1:1000) (#PA1-28799, Thermo Fisher Scientific). […]"}, "[2]": {"test_system": "differentiated PLB-985 cells", "assay": "Quantifying extracellular DNA by SYTOX Green stain after PMA stimulation", "type": "cell-based, human", "settings": "one hour pre-treatment with 10 μM DX1, 300 nM PMA two hours, plate reader; N=3", "experimental": "FIGS. 2A-2D. DAPI and SYTOX™ Green stains support the conclusion that DX1inhibits chromatin decondensation and DNA release by differentiated PLB-985 cells stimulated with PMA. (2A) Chromatin decondensation in differentiated PLB-985 cells after stimulation with PMA±a one hour pre-treatment with 10 μM DX1 was visualized by DAPI stain. Left panel: Control cells with decondensed DAPI stain after PMA stimulation. Right panel: DX1-treated cells retaining condensed DAPI signal after PMA stimulation. Bar: 25 μm. (2B) Quantification of the percentage of differentiated PLB-985 cells with decondensed DAPI stain after PMA stimulation. […] (2C) DNA release by differentiated PLB-985 cells after stimulation with PMA±a one hour pre-treatment with 10 μM DX1 was visualized by addition of the impermeant DNA stain SYTOX™ Green. Representative images are shown. Bar: 25 μm. (2D) SYTOX™ Green signal in wells containing differentiated PLB-985 cells stimulated with PMA±a one hour pre-treatment with 10 […] was quantified by plate reader. […]\nSYTOX™ Green is an impermeant fluorescent DNA stain that facilitates visualization of DNA released in NETosis. Differentiated PLB-985 cells treated with control or 10 μM DX1 and stimulated with PMA were exposed to SYTOX™ Green, and fluorescence was visualized under fluorescence microscopy and quantified by plate reader. […]"}}}
{"molecule": "DX1: 3E10 derivative, a di-scFv having the sequence SEQ ID NO: 38; nuclear-penetrating anti-DNA binding protein (protein, DX1 sequence) scFv: DIQMTQSPSSLSASLGDRATITCRASKTVSTSSYSYMHWYQQKPGQPPKLLIKYASYLESGVPSRFSGSGSGTDFTLTISSLQPEDAATYYCQHSREFPWTFGGGTKVEIKTVDAAPGGGGSGGGGSGGGGSEVQLVESGGGLVQPGGSLRLSCAASGFTFSNYGMHWVRQAPGKGLEWVSYISSGSSTIYYADSVKGRFTISRDNAKNSLYLQMNSLRAEDTAVYYCARRGLLLDYWGQGTTVTVSSASTKGPSVFPLAPLESTGSDIQMTQSPSSLSASLGDRATITCRASKTVSTSSYSYMHWYQQKPGQPPKLLIKYASYLESGVPSRFSGSGSGTDFTLTISSLQPEDAATYYCQHSREFPWTFGGGTKVEIKTVDAAPGGGGSGGGGSGGGGSEVQLVESGGGLVQPGGSLRLSCAASGFTFSNYGMHWVRQAPGKGLEWVSYISSGSSTIYYADSVKGRFTISRDNAKNSLYLQMNSLRAEDTAVYYCARRGLLLDYWGQGTTVTVSS", "values": [{"measurement": "cells penetrated by DX1", "setting": "[1]", "value": "~100", "unit": "%"}, {"measurement": "SYTOX Green signal relative to control", "setting": "[2]", "value": "0.40±0.01"}]}
